Patent US20220259318A1 (Hoffmann-La Roche, published 2022)
Several values for one entry are separate records, joined by “and”; a condition that tells them apart may be missing. Equal entries are not always repeated. Where two headings read alike, the source gives them in different places.

Key:
human GPRC5D [1] = biological target: T1, human GPRC5D (human, UniProt Q9NZD1 1-345); assay: cell-based or functional assay
human GPRC5D [2] = biological target: T1, human GPRC5D; assay: cell ELISA, CHO hu GPRC5D (EC/IC50 rel)
Protocol: Stable transfected CHO clones expressing either human GPRCSD or cynomolgus GPRCSD or murine GPRCSD or human GPRCSA were used to analyze the binding of potential lead candidate antibodies as IgGs. In detail, 10⁴ cells (viability≥98%) were seeded into 384 well-microtiter plates (BD Poly D-Lysin, #356662, volume: 25 μl/well) using fresh culture medium. After overnight incubation at 37° C., 25 μl/well dilutions of antibodies were added (15×1:3 dilutions in 1×PBS, assay conc. starts at 30 μg/ml) to the cells for 2 hours at 4° C. After one washing step using 90 μl/well PBST (10×PBS, Roche, #11666789001+0.1% Tween 20), cells were subsequently fixed by the addition of 50 μl/well 0.05% glutaraldehyde (Sigma Cat. No: G5882 in 1×PBS) for 10 min at room temperature (RT). After three additional washing steps using 90 μl/well PBST, secondary antibodies were added for detection: for human antibodies goat anti-human Ig a chain antibody HRP conjugate (Millipore #AP502P) diluted 1:2000 in blocking buffer (1×PBS (Roche #11666789001)+2% BSA (Bovine Serum Albumin Fraction V, fatty acid free, Roche, #10735086001)+0.05% Tween 20) was used (25 μl/well). […] After incubation for 1 h at RT and three additional washing steps using 90 μl/well PBST, 25 μl/well TMB substrate was added (Roche order no. 11835033001) for 10 min and color development to final ODs was determined by measurement at 370 nm/492 nm.
For the characterization of the humanization variants of the VH and VL domains of the GPRC5D binders the ELISA protocol as described above was used (see Example 7). The data are summarized in the table 10 for the humanization variants of 5E11 and in table 11 for the humanization variants of 5F11.

human GPRC5D [3] = biological target: T1, human GPRC5D; assay: cell-based or functional assay; remark: listed apart in the source
human GPRC5D [4] = biological target: T1, human GPRC5D; assay: cell-based or functional assay; remark: listed apart in the source

T1 sequence (Q9NZD1 whole entry): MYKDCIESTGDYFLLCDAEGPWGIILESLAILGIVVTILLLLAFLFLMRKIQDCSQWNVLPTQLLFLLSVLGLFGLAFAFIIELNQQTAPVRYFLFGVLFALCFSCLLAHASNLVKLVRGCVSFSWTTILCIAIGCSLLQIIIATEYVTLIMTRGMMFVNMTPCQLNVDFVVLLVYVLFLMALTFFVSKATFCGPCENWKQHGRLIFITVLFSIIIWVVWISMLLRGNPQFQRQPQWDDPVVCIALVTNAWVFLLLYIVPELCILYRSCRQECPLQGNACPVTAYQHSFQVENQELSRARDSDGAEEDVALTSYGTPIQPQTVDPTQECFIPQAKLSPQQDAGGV

Binder | EC50 (human GPRC5D [2]) | CAR-J2 EC50 [ng/mL] (PGLALA-CAR-J activation, L363 target cells) (human GPRC5D [3]) | further results
10B10-TCB (bispecific antibody, human IgG1, kappa, L234A L235A) light 1: DIQLTQSPHSLSASLGETVSIECLASEGISNYLAWFHQKPGKSPQLLIYYASSLQDGVPSRFSGSGSGTQYSLKISNMQPEDEGVYYCQQGYKYPLTFGSGTKLEIKRTVAAPSVFIFPPSDRKLKSGTASVVCLLNNFYPREAKVQWKVDNALQSGNSQESVTEQDSKDSTYSLSSTLTLSKADYEKHKVYACEVTHQGLSSPVTKSFNRGEC light 2: EVQLLESGGGLVQPGGSLRLSCAASGFTFSTYAMNWVRQAPGKGLEWVSRIRSKYNNYATYYADSVKGRFTISRDDSKNTLYLQMNSLRAEDTAVYYCVRHGNFGNSYVSWFAYWGQGTLVTVSSASVAAPSVFIFPPSDEQLKSGTASVVCLLNNFYPREAKVQWKVDNALQSGNSQESVTEQDSKDSTYSLSSTLTLSKADYEKHKVYACEVTHQGLSSPVTKSFNRGEC heavy 1: EVQLVESGGGLVQPGRSMKLSCAASGFTFTNFYMAWVRQAPTKALEWVASINTGGGYTYYRDSVKGRFTVSRDNTRSTLYLQMDSLRSEETATYYCARHLTYYGRYYYFDYWGQGVMVTVSSASTKGPSVFPLAPSSKSTSGGTAALGCLVEDYFPEPVTVSWNSGALTSGVHTFPAVLQSSGLYSLSSVVTVPSSSLGTQTYICNVNHKPSNTKVDEKVEPKSCDKTHTCPPCPAPEAAGGPSVFLFPPKPKDTLMISRTPEVTCVVVDVSHEDPEVKFNWYVDGVEVHNAKTKPREEQYNSTYRVVSVLTVLHQDWLNGKEYKCKVSNKALGAPIEKTISKAKGQPREPQVCTLPPSRDELTKNQVSLSCAVKGFYPSDIAVEWESNGQPENNYKTTPPVLDSDGSFFLVSKLTVDKSRWQQGNVFSCSVMHEALHNHYTQKSLSLSPGK heavy 2: not shown |  |  | EC50 in vitro killing assay, AMO-1 (human GPRC5D [1]): 0.084 nM; EC50 in vitro killing assay, EJM (human GPRC5D [1]): 0.079 nM; EC50 in vitro killing assay, L363 (human GPRC5D [1]): 0.034 nM; EC50 in vitro killing assay, MOLP-2 (human GPRC5D [1]): 0.16 nM; EC50 in vitro killing assay, NCI-H929 (human GPRC5D [1]): 0.056 nM; EC50 in vitro killing assay, OPM-2 (human GPRC5D [1]): 0.028 nM; EC50 in vitro killing assay, RPMI (human GPRC5D [1]): 0.965 nM
P1AE5737 (antibody, V domains shown, Humanized 5F11 IgG; PGLALA Fc implied by the CAR-J assay; also called 5F11_VH1a + 5F11_VL2b) VH: QVQLVESGGGVVQPGRSLRLSCAASGFSFSNYGMAWVRQAPGKGLEWVASISTGGGNTYYRDSVKGRFTISRDNSKNTLYLQMNSLRAEDTAVYYCTRHDRGGLYWGQGTMVTVSS VL: DIVMTQSPDSLAVSLGERATINCKSSKSLLHSNGITYVYWYQQKPGQPPKLLIYRMSNLASGVPDRFSGSGSGTDFTLTISSLQAEDVAVYHCGQLLENPYTFGQGTKLEIK | 0.0059 µg/mL and 0.04 nM | 2.95 | 
P1AE5743 (antibody, V domains shown, Humanized 5F11 IgG; PGLALA Fc implied by the CAR-J assay; also called 5F11_VH1b + 5F11_VL2c) VH: EVQLVESGGGVVQPGRSLRLSCAASGFSFSNYGMAWVRQAPGKGLEWVASISTGGGNTYYRDSVKGRFTISRDNAKNTLYLQMNSLRAEDTAVYYCTRHDRGGLYWGQGTMVTVSS VL: EIVLTQSPGTLSLSPGERATLSCRASKSLLHSNGITYVYWYQQKPGQAPRLLIYRMSNLASGIPDRFSGSGSGTDFTLTISRLEPEDFAVYHCGQLLENPYTFGQGTKLEIK | 0.0076 µg/mL and 0.05 nM | 583 | 
P1AE5749 (antibody, V domains shown, Humanized 5F11 IgG; PGLALA Fc implied by the CAR-J assay; also called 5F11_VH1c + 5F11_VL2c) VH: QVQLVESGGGVVQPGRSLRLSCAASGFSFSNYGMAWVRQAPGKGLEWVASISTGGGNTYYADSVKGRFTISRDNSKNTLYLQMNSLRAEDTAVYYCTRHDRGGLYWGQGTMVTVSS VL: EIVLTQSPGTLSLSPGERATLSCRASKSLLHSNGITYVYWYQQKPGQAPRLLIYRMSNLASGIPDRFSGSGSGTDFTLTISRLEPEDFAVYHCGQLLENPYTFGQGTKLEIK | 0.0074 µg/mL and 0.05 nM | 82.6 | 
P1AE5738 (antibody, V domains shown, Humanized 5F11 IgG; PGLALA Fc implied by the CAR-J assay; also called 5F11_VH1a + 5F11_VL2c) VH: QVQLVESGGGVVQPGRSLRLSCAASGFSFSNYGMAWVRQAPGKGLEWVASISTGGGNTYYRDSVKGRFTISRDNSKNTLYLQMNSLRAEDTAVYYCTRHDRGGLYWGQGTMVTVSS VL: EIVLTQSPGTLSLSPGERATLSCRASKSLLHSNGITYVYWYQQKPGQAPRLLIYRMSNLASGIPDRFSGSGSGTDFTLTISRLEPEDFAVYHCGQLLENPYTFGQGTKLEIK | 0.0041 µg/mL and 0.03 nM | 397 | 
P1AE5747 (antibody, V domains shown, Humanized 5F11 IgG; PGLALA Fc implied by the CAR-J assay; also called 5F11_VH1c + 5F11_VL2b) VH: QVQLVESGGGVVQPGRSLRLSCAASGFSFSNYGMAWVRQAPGKGLEWVASISTGGGNTYYADSVKGRFTISRDNSKNTLYLQMNSLRAEDTAVYYCTRHDRGGLYWGQGTMVTVSS VL: DIVMTQSPDSLAVSLGERATINCKSSKSLLHSNGITYVYWYQQKPGQPPKLLIYRMSNLASGVPDRFSGSGSGTDFTLTISSLQAEDVAVYHCGQLLENPYTFGQGTKLEIK | 0.009 µg/mL and 0.06 nM | 183 | 
P1AE5764 (antibody, V domains shown, Humanized 5F11 IgG; PGLALA Fc implied by the CAR-J assay; also called 5F11_VH2d + 5F11_VL2c) VH: EVQLVESGGGLVQPGGSLRLSCAASGFSFSNYGMAWVRQAPGKGLEWVASISTGGGNTYYADSVKGRFTISRDNAKNTLYLQMNSLRAEDTAVYYCTRHDRGGLYWGQGTMVTVSS VL: EIVLTQSPGTLSLSPGERATLSCRASKSLLHSNGITYVYWYQQKPGQAPRLLIYRMSNLASGIPDRFSGSGSGTDFTLTISRLEPEDFAVYHCGQLLENPYTFGQGTKLEIK | 0.0045 µg/mL and 0.03 nM | 78.2 | 
P1AE5759 (antibody, V domains shown, Humanized 5F11 IgG; PGLALA Fc implied by the CAR-J assay; also called 5F11_VH2b + 5F11_VL2c) VH: EVQLVESGGGLVQPGGSLRLSCAASGFSFSNYGMAWVRQAPGKGLEWVASISTGGGNTYYRDSVKGRFTISRDNAKNTLYLQMNSLRAEDTAVYYCTRHDRGGLYWGQGTMVTVSS VL: EIVLTQSPGTLSLSPGERATLSCRASKSLLHSNGITYVYWYQQKPGQAPRLLIYRMSNLASGIPDRFSGSGSGTDFTLTISRLEPEDFAVYHCGQLLENPYTFGQGTKLEIK | 0.0031 µg/mL and 0.02 nM | 15.7 | 
P1AE5754 (antibody, V domains shown, Humanized 5F11 IgG; PGLALA Fc implied by the CAR-J assay; also called 5F11_VH1d + 5F11_VL2c) VH: EVQLVESGGGVVQPGRSLRLSCAASGFSFSNYGMAWVRQAPGKGLEWVASISTGGGNTYYADSVKGRFTISRDNAKNTLYLQMNSLRAEDTAVYYCTRHDRGGLYWGQGTMVTVSS VL: EIVLTQSPGTLSLSPGERATLSCRASKSLLHSNGITYVYWYQQKPGQAPRLLIYRMSNLASGIPDRFSGSGSGTDFTLTISRLEPEDFAVYHCGQLLENPYTFGQGTKLEIK | 0.009 µg/mL and 0.06 nM | 8.89 | 
P1AE5758 (antibody, V domains shown, Humanized 5F11 IgG; PGLALA Fc implied by the CAR-J assay; also called 5F11_VH2b + 5F11_VL2b) VH: EVQLVESGGGLVQPGGSLRLSCAASGFSFSNYGMAWVRQAPGKGLEWVASISTGGGNTYYRDSVKGRFTISRDNAKNTLYLQMNSLRAEDTAVYYCTRHDRGGLYWGQGTMVTVSS VL: DIVMTQSPDSLAVSLGERATINCKSSKSLLHSNGITYVYWYQQKPGQPPKLLIYRMSNLASGVPDRFSGSGSGTDFTLTISSLQAEDVAVYHCGQLLENPYTFGQGTKLEIK | 0.0026 µg/mL and 0.02 nM | 190 | 
P1AE5753 (antibody, V domains shown, Humanized 5F11 IgG; PGLALA Fc implied by the CAR-J assay; also called 5F11_VH1d + 5F11_VL2b) VH: EVQLVESGGGVVQPGRSLRLSCAASGFSFSNYGMAWVRQAPGKGLEWVASISTGGGNTYYADSVKGRFTISRDNAKNTLYLQMNSLRAEDTAVYYCTRHDRGGLYWGQGTMVTVSS VL: DIVMTQSPDSLAVSLGERATINCKSSKSLLHSNGITYVYWYQQKPGQPPKLLIYRMSNLASGVPDRFSGSGSGTDFTLTISSLQAEDVAVYHCGQLLENPYTFGQGTKLEIK | 0.0104 µg/mL and 0.07 nM | 30 | 
P1AE5709 (antibody, V domains shown, Humanized 5E11 IgG; PGLALA Fc implied by the CAR-J assay; also called 5E11_VH1a + 5E11_VL2a) VH: EVQLLESGGGLVQPGGSLRLSCAASGFTFSKYAMAWVRQAPGKGLEWVASISTGGVNTYYRDSVKARFTISRDNSKNTLYLQMNSLRAEDTAVYYCATHTGDYFDYWGQGTMVTVSS VL: EIVLTQSPGTLSLSPGERATLSCRASQSVSISGINLMNWYQQKPGQQPRLLIYHASILASGIPDRFSGSGSGTDFTLTISRLEPEDFAVYYCQQTRESPLTFGQGTRLEIK | 0.0191 µg/mL and 0.13 nM |  | CAR-J2 EC50 [ng/mL] (PGLALA-CAR-J activation, L363 target cells) (human GPRC5D [4]): 59.4 ng/mL
P1AE5716 (antibody, V domains shown, Humanized 5E11 IgG; PGLALA Fc implied by the CAR-J assay; also called 5E11_VH1b + 5E11_VL2a) VH: ELQLLESGGGLVQPGGSLRLSCAASGFTFSKYAMAWVRQAPGKGLEWVASISTGGVNTYYRDSVKARFTISRDNAKNTLYLQMNSLRAEDTAVYYCATHTGDYFDYWGQGTMVTVSS VL: EIVLTQSPGTLSLSPGERATLSCRASQSVSISGINLMNWYQQKPGQQPRLLIYHASILASGIPDRFSGSGSGTDFTLTISRLEPEDFAVYYCQQTRESPLTFGQGTRLEIK | 0.0151 µg/mL and 0.1 nM |  | CAR-J2 EC50 [ng/mL] (PGLALA-CAR-J activation, L363 target cells) (human GPRC5D [4]): 3.3 ng/mL
P1AE5710 (antibody, V domains shown, Humanized 5E11 IgG; PGLALA Fc implied by the CAR-J assay; also called 5E11_VH1a + 5E11_VL2b) VH: EVQLLESGGGLVQPGGSLRLSCAASGFTFSKYAMAWVRQAPGKGLEWVASISTGGVNTYYRDSVKARFTISRDNSKNTLYLQMNSLRAEDTAVYYCATHTGDYFDYWGQGTMVTVSS VL: EIVLTQSPGTLSLSPGERATLSCRASQSVSISGINLMNWYQQKPGQQPKLLIYHASILASGIPDRFSGSGSGTDFTLTISRLEPEDFAVYYCQQTRESPLTFGQGTRLEIK | 0.0101 µg/mL and 0.07 nM |  | CAR-J2 EC50 [ng/mL] (PGLALA-CAR-J activation, L363 target cells) (human GPRC5D [4]): 3.5 ng/mL
